Data from paper PMC4041426, “Structural basis for binding the TREX2 complex to nuclear pores, GAL1 localisation and mRNA export” (Nucleic Acids Research, 2014).

T1: Sus1 (S. cerevisiae, UniProt Q6WNK7 1-96)
T1 construct: Sus1, S. cerevisiae; also called Sus1A; Sus1B; source: E. coli BL21 (DE3) CodonPlus RIL; in clarified lysate (assembly pull-down), purified within Sac3 complexes (crystals)
T1 sequence: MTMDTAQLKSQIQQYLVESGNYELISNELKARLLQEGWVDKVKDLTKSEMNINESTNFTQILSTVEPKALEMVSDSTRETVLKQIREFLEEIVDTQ

T2: Cdc31 (S. cerevisiae, UniProt P06704 1-161)
T2 construct: Cdc31, S. cerevisiae; source: E. coli BL21 (DE3) CodonPlus RIL, co-expressed with Sac3 fragments; in clarified lysate (assembly pull-down), purified within Sac3 complexes (crystals)
T2 sequence: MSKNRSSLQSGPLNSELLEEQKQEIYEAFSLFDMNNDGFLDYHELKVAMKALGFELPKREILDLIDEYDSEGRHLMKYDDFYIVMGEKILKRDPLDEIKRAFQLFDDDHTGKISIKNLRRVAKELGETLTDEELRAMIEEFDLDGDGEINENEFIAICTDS

T3: Kap95 (yeast, UniProt Q06142 1-861)
T3 construct: Kap95 (protein import karyopherin), yeast; also called karyopherin Kap95; yeast Kap95
T3 sequence (looked up): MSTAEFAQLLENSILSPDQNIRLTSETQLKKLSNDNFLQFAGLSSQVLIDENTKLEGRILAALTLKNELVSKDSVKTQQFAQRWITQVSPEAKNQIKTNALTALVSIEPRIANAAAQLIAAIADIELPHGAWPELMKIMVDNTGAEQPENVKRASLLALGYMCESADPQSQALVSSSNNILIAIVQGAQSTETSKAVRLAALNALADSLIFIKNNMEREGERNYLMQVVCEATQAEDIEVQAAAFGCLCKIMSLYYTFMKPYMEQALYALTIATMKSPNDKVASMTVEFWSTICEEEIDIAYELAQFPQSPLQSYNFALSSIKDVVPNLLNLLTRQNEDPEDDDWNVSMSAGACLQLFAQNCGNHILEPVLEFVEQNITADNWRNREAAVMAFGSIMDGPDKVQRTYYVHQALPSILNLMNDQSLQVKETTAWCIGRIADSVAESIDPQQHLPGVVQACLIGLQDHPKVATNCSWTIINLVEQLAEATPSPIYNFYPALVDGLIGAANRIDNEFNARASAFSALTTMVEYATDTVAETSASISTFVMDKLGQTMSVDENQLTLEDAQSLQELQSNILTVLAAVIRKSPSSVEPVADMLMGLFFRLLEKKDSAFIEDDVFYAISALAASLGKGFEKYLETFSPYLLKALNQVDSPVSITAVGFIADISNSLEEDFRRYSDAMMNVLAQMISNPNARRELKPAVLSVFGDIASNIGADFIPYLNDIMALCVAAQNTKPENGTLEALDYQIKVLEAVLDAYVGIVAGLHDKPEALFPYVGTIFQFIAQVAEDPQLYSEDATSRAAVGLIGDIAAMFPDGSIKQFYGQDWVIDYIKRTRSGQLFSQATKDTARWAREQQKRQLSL

T4: Sac3^753–805:Sus1B:Cdc31 complex (S. cerevisiae, UniProt P46674 753-805; Q6WNK7 1-96; P06704 1-161)
T4 construct: Sac3, S. cerevisiae, residues 753–805 (BC); Sus1, S. cerevisiae (the Sus1B chain); Cdc31, S. cerevisiae; also called BC sub-complex; source: E. coli BL21 (DE3) CodonPlus RIL; cells with co-expressed Sac3:Cdc31 mixed with cells with Sus1; copies: 1 + 1 + 1
T4 sequence 1: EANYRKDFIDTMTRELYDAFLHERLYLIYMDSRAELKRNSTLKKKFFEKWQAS
T4 sequence 2: T1 sequence
T4 sequence 3: T2 sequence

B1: Sac3^753–805 (domain or fragment, S. cerevisiae, UniProt P46674 753-805, looked up)
chain: T4 sequence 1
notes: Sac3, S. cerevisiae, residues 753–805 (BC); also called BC fragment; source: E. coli BL21 (DE3) CodonPlus RIL, purified in complex with Sus1B and Cdc31
B2: GST-Nup1^371–500 (domain or fragment, S. cerevisiae, UniProt P20676 371-500, looked up)
chain: DKSTKTAEAPTLSFNFSQKANKTKAVDNTVPSTTLFNFGGKSDTVTSASQPFKFGKTSEKSENHTESDAPPKSTAPIFSFGKQEENGDEGDDENEPKRKRRLPVSEDTNTKPLFDFGKTGDQKETKKGES
notes: source: E. coli BL21 (DE3) CodonPlus RIL; immobilised on Glutathione Sepharose 4B from clarified lysate; not shown: GST, N-terminal, kept
B3: Nup1^316–340 (domain or fragment, S. cerevisiae, UniProt P20676 316-340, looked up)
chain: LKKNIEPKKDKESIVLPTVGFDFIK
notes: Nup1, S. cerevisiae, residues 316–340; Residues 330–340 were built in the model; also called Nup1 fragment; source: E. coli BL21 (DE3) CodonPlus RIL, purified (Glutathione Sepharose, TEV release, Superdex75); not shown: GST, N-terminal, cleaved
B4: Sac3^757–787 (domain or fragment, S. cerevisiae, UniProt P46674 757-787, looked up)
chain: RKDFIDTMTRELYDAFLHERLYLIYMDSRAE
notes: source: E. coli BL21 (DE3) CodonPlus RIL, purified in complex with Sus1B
B5: Sac3^757–787:Sus1B (complex, S. cerevisiae)
chain 1: B4 chain
chain 2: T1 sequence
notes: Sus1, S. cerevisiae (the Sus1B chain); also called B sub-complex; Sac3:Sus1B; copies: 1 + 1
B6: Nup1^322–355 (domain or fragment, S. cerevisiae, UniProt P20676 322-355, looked up)
chain: PKKDKESIVLPTVGFDFIKDNETPSKKTSPKATS
notes: Residues 326–340 were built in the model; also called Nup1 fragment; source: E. coli BL21 (DE3) CodonPlus RIL, purified (Glutathione Sepharose, TEV release, Superdex75); not shown: GST, N-terminal, cleaved
B7: GST-Nup1^191–385 (domain or fragment, S. cerevisiae, UniProt P20676 191-385, looked up)
chain: KNRSNRKRFHSQSKGTVWSANFEYDLSEYDAIQKKDNKDKEGNAGGDQKTSENRNNIKSSISNGNLATGPNLTSEIEDLRADINSNRLSNPQKNLLLKGPASTVAKTAPIQESFVPNSERSGTPTLKKNIEPKKDKESIVLPTVGFDFIKDNETPSKKTSPKATSSAGAVFKSSVEMGKTDKSTKTAEAPTLSFN
notes: as for B2

How the values were obtained:
Details in all cases: both partners purified
[1] = target: T1, Sus1; assay: crystal structure; Nup1^316–340 mixed 7:1 with Sac3^753–805:Sus1B:Cdc31 (14.6 mg/ml); 16% PEG600, 2% PEG 1K, 10% glycerol, 100 mM MES pH 6.0; P2_(1), 2.6 Å
[2] = target: T2, Cdc31; assay: as above
[3] = target: T3, Kap95; assay: pull-down; GST-Nup fusion (or GST) immobilised on Glutathione Sepharose 4B from clarified bacterial lysate and washed with PBS-DTT; purified Sac3^CID complex, sub-complex, mutant variant or Kap95 added at 15.4 μM; 4°C, 1 h; SDS-PAGE and Coomassie staining
[4] = target: T4, Sac3^753–805:Sus1B:Cdc31 complex; assay: crystal structure; Nup1^316–340 mixed 7:1 with Sac3^753–805:Sus1B:Cdc31 (14.6 mg/ml); 16% PEG600, 2% PEG 1K, 10% glycerol, 100 mM MES pH 6.0; P2_(1), 2.6 Å
[5] = target: T1, Sus1; assay: crystal structure; Nup1^322–355 mixed 6:1 with Sac3^757–787:Sus1B (15 mg/ml); 2.2–2.35 M ammonium sulphate, 100 mM Na citrate pH 5.6; P3_(2)21, 3.0 Å
[6] = target: B7; assay: pull-down; GST-Nup fusion (or GST) immobilised on Glutathione Sepharose 4B from clarified bacterial lysate and washed with PBS-DTT; purified Sac3^CID complex, sub-complex, mutant variant or Kap95 added at 15.4 μM; 4°C, 1 h; SDS-PAGE and Coomassie staining
[7] = target: B4; assay: crystal structure; Nup1^322–355 mixed 6:1 with Sac3^757–787:Sus1B (15 mg/ml); 2.2–2.35 M ammonium sulphate, 100 mM Na citrate pH 5.6; P3_(2)21, 3.0 Å
[8] = target: B5; assay: as above
[9] = target: T4, Sac3^753–805:Sus1B:Cdc31 complex; assay: pull-down; GST-Nup fusion (or GST) immobilised on Glutathione Sepharose 4B from clarified bacterial lysate and washed with PBS-DTT; purified Sac3^CID complex, sub-complex, mutant variant or Kap95 added at 15.4 μM; 4°C, 1 h; SDS-PAGE and Coomassie staining

Does B1 bind [1]?
Result: binds

Does B1 bind [2]?
Result: binds

Does B2 bind [3]?
Result: binds

Does B3 bind [4]?
Result: binds

Does B4 bind [5]?
Result: binds

Does B5 bind [6]?
Result: binds

Does B6 bind [7]?
Result: binds

Does B6 bind [5]?
Result: binds

Does B6 bind [8]?
Result: binds

Does B7 bind [9]?
Result: binds
